Experimental data taken from US20230256092A1 (SHIONOGI, published 2023).
Like-named read-outs stand apart in the source and are kept apart here.

B1: 2-7B (antibody, V domains shown)
VH: EVQLVESDGGLVQPGRSLKLSCAASGFTFSDYYMAWVRQAPTKGLEWVATITYDVYSTYYRDSVKGRFTISRDNAKSTLYLQMDSLRSEDTATYYCARHGGDGYNSGNWFAYWGQGTLVTVSS
VL: DIVLTQSPALAVSLGQRATISCRASQSVSISRYNIMHWYQQKPGQQPKLLIYRASNLASGIPARFSGSGSGTDFTLTINPVQADDIATYYCQQSRESPPTFGGGTKLELKR
B2: h10A11 (IGKV3-20/IGHV3-15 T94R) (antibody, V domains shown)
VH: EVQLVESGGALVKPGGSLRLSCAASGFTFSTYALYWVRQAPGKGLEWVGRIRSKSNNYATYYADSVKDRFTISRDDSKNTLYLQMNSLKTEDTAVYYCTRARFYYSDYGYAMDYWGQGTLVTVSS
VL: EIVLTQSPGTLSLSPGERATLSCRSSKSLLHSNGNTYLYWYQQKPGQAPRLLIYRMSNLASGIPDRFSGSGSGTDFTLTISRLEPEDFAVYYCMQHLEYPLTFGQGTKVEIKR
B3: humanized 10A11 mutant (IGKV3-20 N53Q, G29L/IGHV3-15 T94R) (antibody, V domains shown)
VH: EVQLVESGGALVKPGGSLRLSCAASGFTFSTYALYWVRQAPGKGLEWVGRIRSKSNNYATYYADSVKDRFTISRDDSKNTLYLQMNSLKTEDTAVYYCTRARFYYSDYGYAMDYWGQGTLVTVSS
VL: EIVLTQSPGTLSLSPGERATLSCRSSKSLLHSNLNTYLYWYQQKPGQAPRLLIYRMSQLASGIPDRFSGSGSGTDFTLTISRLEPEDFAVYYCMQHLEYPLTFGQGTKVEIKR
B4: h10A11 (IGKV2-40/IGHV3-15 T94R) (antibody, V domains shown)
VH: EVQLVESGGALVKPGGSLRLSCAASGFTFSTYALYWVRQAPGKGLEWVGRIRSKSNNYATYYADSVKDRFTISRDDSKNTLYLQMNSLKTEDTAVYYCTRARFYYSDYGYAMDYWGQGTLVTVSS
VL: DIVMTQTPLSLPVTPGEPASISCRSSKSLLHSNGNTYLYWYLQKPGQSPQLLIYRMSNLASGVPDRFSGSGSGTDFTLKISRVEAEDVGVYYCMQHLEYPLTFGQGTKLEIKR
B5: h10A11 (IGKV2-40/IGHV3-73) (antibody, V domains shown)
VH: EVQLVESGGGLVQPGGSLKLSCAASGFAFNTYALYWVRQASGKGLEWVGRIRSKSNNYATYYADSVKDRFTISRDDSKNTAYLQMNSLKTEDTAVYYCTRARFYYSDYGYAMDYWGQGTLVTVSS
VL: DIVMTQTPLSLPVTPGEPASISCRSSKSLLHSNGNTYLYWYLQKPGQSPQLLIYRMSNLASGVPDRFSGSGSGTDFTLKISRVEAEDVGVYYCMQHLEYPLTFGQGTKLEIKR
B6: humanized 10A11 mutant (IGKV3-20 N53Q, N28K/IGHV3-15 T94R) (antibody, V domains shown)
VH: EVQLVESGGALVKPGGSLRLSCAASGFTFSTYALYWVRQAPGKGLEWVGRIRSKSNNYATYYADSVKDRFTISRDDSKNTLYLQMNSLKTEDTAVYYCTRARFYYSDYGYAMDYWGQGTLVTVSS
VL: EIVLTQSPGTLSLSPGERATLSCRSSKSLLHSKGNTYLYWYQQKPGQAPRLLIYRMSQLASGIPDRFSGSGSGTDFTLTISRLEPEDFAVYYCMQHLEYPLTFGQGTKVEIKR
B7: h10A11 (IGKV1-39/IGHV3-73) (antibody, V domains shown)
VH: EVQLVESGGGLVQPGGSLKLSCAASGFAFNTYALYWVRQASGKGLEWVGRIRSKSNNYATYYADSVKDRFTISRDDSKNTAYLQMNSLKTEDTAVYYCTRARFYYSDYGYAMDYWGQGTLVTVSS
VL: DIQMTQSPSSLSASVGDRVTITCRSSKSLLHSNGNTYLYWYQQKPGKAPKLLIYRMSNLASGVPSRFSGSGSGTDFTLTISSLQPEDFATYYCMQHLEYPLTFGQGTKLEIKR
B8: humanized 10A11 mutant (IGKV3-20 N53Q, G29R/IGHV3-15 T94R) (antibody, V domains shown)
VH: EVQLVESGGALVKPGGSLRLSCAASGFTFSTYALYWVRQAPGKGLEWVGRIRSKSNNYATYYADSVKDRFTISRDDSKNTLYLQMNSLKTEDTAVYYCTRARFYYSDYGYAMDYWGQGTLVTVSS
VL: EIVLTQSPGTLSLSPGERATLSCRSSKSLLHSNRNTYLYWYQQKPGQAPRLLIYRMSQLASGIPDRFSGSGSGTDFTLTISRLEPEDFAVYYCMQHLEYPLTFGQGTKVEIKR
B9: humanized 10A11 antibody (light chain variable region: IGKV4-1 N53Q+G29R/heavy chain variable region: IGHV3-15 T94R) (antibody, V domains shown)
VH: EVQLVESGGALVKPGGSLRLSCAASGFTFSTYALYWVRQAPGKGLEWVGRIRSKSNNYATYYADSVKDRFTISRDDSKNTLYLQMNSLKTEDTAVYYCTRARFYYSDYGYAMDYWGQGTLVTVSS
VL: DIVMTQSPDSLAVSLGERATINCRSSKSLLHSNRNTYLYWYQQKPGQPPKLLIYRMSQLASGVPDRFSGSGSGTDFTLTISSLQAEDVAVYYCMQHLEYPLTFGQGTKLEIKR
B10: h10A11 (IGKV1-16/IGHV3-15 T94R) (antibody, V domains shown)
VH: EVQLVESGGALVKPGGSLRLSCAASGFTFSTYALYWVRQAPGKGLEWVGRIRSKSNNYATYYADSVKDRFTISRDDSKNTLYLQMNSLKTEDTAVYYCTRARFYYSDYGYAMDYWGQGTLVTVSS
VL: DIQMTQSPSSLSASVGDRVTITCRSSKSLLHSNGNTYLYWFQQKPGKAPKSLIYRMSNLASGVPSRFSGSGSGTDFTLTISSLQPEDFATYYCMQHLEYPLTFGQGTKLEIKR
B11: h10A11 (IGKV2-28/IGHV3-73) (antibody, V domains shown)
VH: EVQLVESGGGLVQPGGSLKLSCAASGFAFNTYALYWVRQASGKGLEWVGRIRSKSNNYATYYADSVKDRFTISRDDSKNTAYLQMNSLKTEDTAVYYCTRARFYYSDYGYAMDYWGQGTLVTVSS
VL: DIVMTQSPLSLPVTPGEPASISCRSSKSLLHSNGNTYLYWYLQKPGQSPQLLIYRMSNLASGVPDRFSGSGSGTDFTLKISRVEAEDVGVYYCMQHLEYPLTFGQGTKVEIKR
B12: h10A11 (IGKV1-39/IGHV3-15 T94R) (antibody, V domains shown)
VH: EVQLVESGGALVKPGGSLRLSCAASGFTFSTYALYWVRQAPGKGLEWVGRIRSKSNNYATYYADSVKDRFTISRDDSKNTLYLQMNSLKTEDTAVYYCTRARFYYSDYGYAMDYWGQGTLVTVSS
VL: DIQMTQSPSSLSASVGDRVTITCRSSKSLLHSNGNTYLYWYQQKPGKAPKLLIYRMSNLASGVPSRFSGSGSGTDFTLTISSLQPEDFATYYCMQHLEYPLTFGQGTKLEIKR
B13: 27G1 (antibody, V domains shown)
VH: EVQLVESGGRLVQPKGSLKLSCAASGFAFNTYAMYWIRQAPGKGLEWVARIRSKSNNYATYYADSVKDRFTISRDDSQSMLYLQMNNLKTEDTAMYYCVRARFYYSDYGYAMDYWGQGTSVTVSS
VL: DIVMTQAAPSVPVTPGESVSISCRSSKSLLHSNGNTYLYWFLQRPGQSPQLLIYRMSNLASGVPDRFSGSGSGTAFTLRISRVEAEDVGVYYCMQHLEYPLTFGAGTKLELKR
notes: mouse hybridoma antibody, purified

Experiments:
[1] = molecular target: T1, human CCR8 (human, UniProt P51685 1-355); assay: cell-based or functional assay
[2] = molecular target: T1, human CCR8; assay: cell-based or functional assay; remark: listed apart in the source
[3] = molecular target: T1, human CCR8; assay: cell-based or functional assay; remark: listed apart in the source
[4] = molecular target: T1, human CCR8; assay: cell-based or functional assay; remark: listed apart in the source
[5] = molecular target: T2, hCCR8 (Y17A) (human, UniProt P51685 1-355); assay: flow cytometry on Expi293 transfectants
T2 construct: also called mutant in which Y at position 17 of human CCR8 is substituted for A

[6] = molecular target: T3, human CCR4 (human, UniProt P51679 1-360); assay: flow cytometry on Expi293 transfectants
T3 construct: full length, on Expi293 cells; also called hCCR4
T3 sequence: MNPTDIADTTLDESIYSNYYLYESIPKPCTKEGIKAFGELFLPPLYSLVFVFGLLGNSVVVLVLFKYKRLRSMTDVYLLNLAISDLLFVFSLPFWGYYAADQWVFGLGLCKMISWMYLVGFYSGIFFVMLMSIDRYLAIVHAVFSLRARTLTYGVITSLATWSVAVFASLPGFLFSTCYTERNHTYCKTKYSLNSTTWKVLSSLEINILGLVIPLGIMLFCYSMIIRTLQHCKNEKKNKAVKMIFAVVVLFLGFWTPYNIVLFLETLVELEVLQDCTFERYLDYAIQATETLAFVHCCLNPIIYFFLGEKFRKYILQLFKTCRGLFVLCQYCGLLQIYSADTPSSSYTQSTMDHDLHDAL

[7] = molecular target: T4, mouse CCR8 (mouse, UniProt P56484 1-353); assay: flow cytometry on Expi293 transfectants
T4 construct: full length, on Expi293 cells; also called mCCR8
T4 sequence: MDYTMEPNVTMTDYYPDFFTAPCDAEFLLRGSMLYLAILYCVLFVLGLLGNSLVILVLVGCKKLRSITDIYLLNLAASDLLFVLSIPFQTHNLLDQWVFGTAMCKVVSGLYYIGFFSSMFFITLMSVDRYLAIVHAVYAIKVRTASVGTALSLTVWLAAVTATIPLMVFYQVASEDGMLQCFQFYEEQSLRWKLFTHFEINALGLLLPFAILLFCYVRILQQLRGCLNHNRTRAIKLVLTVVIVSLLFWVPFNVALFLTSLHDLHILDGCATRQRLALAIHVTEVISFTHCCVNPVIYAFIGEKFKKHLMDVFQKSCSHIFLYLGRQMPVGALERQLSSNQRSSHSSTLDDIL

[8] = molecular target: T5, N-ter hCCR4-hCCR8 (human); assay: flow cytometry on Expi293 transfectants
T5 construct: chimera on Expi293 cells; also called human CCR8 with the N-terminal region substituted with that of human CCR4
T5 chain: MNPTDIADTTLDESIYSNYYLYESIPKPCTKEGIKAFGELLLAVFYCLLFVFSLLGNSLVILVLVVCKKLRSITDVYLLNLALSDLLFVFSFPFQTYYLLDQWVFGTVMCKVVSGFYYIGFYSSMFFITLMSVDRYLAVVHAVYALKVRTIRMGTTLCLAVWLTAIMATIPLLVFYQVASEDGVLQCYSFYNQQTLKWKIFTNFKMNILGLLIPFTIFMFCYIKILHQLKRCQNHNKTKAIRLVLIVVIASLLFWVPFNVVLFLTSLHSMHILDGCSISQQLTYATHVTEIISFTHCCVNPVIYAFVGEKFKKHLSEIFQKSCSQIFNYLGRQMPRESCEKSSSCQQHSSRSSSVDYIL

[9] = molecular target: T6, loop3 hCCR4-hCCR8 (human, UniProt P51685 1-355); assay: FCM, Expi293 transfectants; blank cell = same binding activity as wild-type hCCR8
T6 construct: chimera on Expi293 cells; hCCR8 264-280 replaced

[10] = molecular target: T7, loop1 hCCR4-hCCR8 (human, UniProt P51685 1-355); assay: FCM, Expi293 transfectants; Δ = significantly reduced binding activity vs wild-type hCCR8
T7 construct: chimera on Expi293 cells; hCCR8 94-107 replaced; also called loop1-human CCR4-substituted human CCR8

[11] = molecular target: T8, loop2 hCCR4-hCCR8 (human, UniProt P51685 1-355); assay: as above
T8 construct: chimera on Expi293 cells; hCCR8 172-202 replaced; also called loop2-human CCR4-substituted human CCR8

Binder	IC50 (nM), Ca2+ influx by 200 nM hCCL1 [2]	IC50 (nM), Ca2+ influx by 200 nM hCCL1 [3]	further results
B1	–	–	IC50 (nM), Ca2+ influx by 200 nM hCCL1 [1]: 0.23 nM
B2	0.16 nM	–	–
B3	–	0.21 nM	–
B4	0.3 nM	–	–
B5	0.21 nM	–	–
B6	–	0.29 nM	–
B7	0.16 nM	–	–
B8	–	0.19 nM	–
B9	–	0.12 nM	–
B10	0.7 nM	–	–
B11	0.2 nM	–	–
B12	0.2 nM	–	–
B13	–	–	Neutralizing activity IC50 (nM), Ca2+ influx by 100 nM hCCL1 [4]: 0.09 nM; binding result [5]: no binding; binding result [6]: no binding; binding result [7]: no binding; binding result [8]: no binding; binding result [9]: binds; binding result [10]: binds; binding result [11]: binds
